Laboratory results taken from patent US9023998B2, “Near infrared fluorogen and fluorescent activating proteins for in vivo imaging and live-cell biosensing” (Carnegie Mellon University, priority 2013, dated 2015).

Tests used:
dL9 (SEQ. ID NO: 1) = assay: Fluorescence activation of SKC638 by purified dL9; type: biochemical; conditions: molar excess of purified dL9, excitation 630 nm, non-normalized spectrum
Source text: The non-normalized emission spectrum shown (black, solid) was acquired using a Quantamaster fluorometer (PTI) by excitation through monochromators set at 630 nm. The primary peak near 730 nm is likely due to contaminating SKC602, while a second, smaller peak is clearly observed near 823 nm, and is likely contributed by the extended chromophore of SKC638.

[1] = Spectral properties of fluoromodules (Table 1); type: physicochemical; conditions: fluoromodule (FAP:fluorogen complex)
Source text: The spectral properties of fluoromodules assembled from combinations of dL9.2 (SEQ. ID. NO. 2) and dL9.5 (SEQ. ID. NO. 3) with SKC602 and SKC728 are listed in Table 1. dL9.2 (SEQ. ID. NO. 2) is an asymmetric light chain (VL-VL) tandem dimer based upon dL9 (SEQ. ID. NO. 1), hosting the V70A mutation on the N-terminal light chain. dL9.5 (SEQ. ID. NO. 3) is a symmetric light chain (VL-VL) tandem dimer based upon dL9.2 (SEQ. ID. NO. 2) with the V70A mutation propagated to C-terminal chain, and an additional Y96H mutation that is present on both chains. These genetically encoded fluorescent labels yield good brightness in the far-red/NIR spectral regime when combined with their cognate fluorogens.
The dL9.2:SKC602 (SEQ. ID. NO. 2:SKC602) fluoromodule (black, solid) emits at longer wavelengths than existing biliverdin-binding infra-red fluorescent proteins, while retaining the ability to be excited effectively by common illumination sources such as the HeNe laser line (633 nm) as well as lamps equipped with Cy5™-compatible excitation filters. Spectra of dL9.5 (SEQ. ID. NO. 3) bound to SKC602 are highly similar. Excitation and emission spectra are normalized to the highest value within each data set.
(§1) Relative fluorescence quantum yield assessments were conducted via the gradient method (Williams, Winfield and Miller, Relative Fluorescent Quantum Yield Using a Computer-controlled Luminescence Spectrometer, Analyst, vol. 108, 1067-1071 ([…]) against reference dyes Cy5.18 in PBS, pH 7.4 (Mujumdar, et al., Cyanine Dyes Labeling Reagents: Sulfoindocyanine Succinimidyl Esters, Bioconjugate Chemistry, Vol. 4, No. 2, 105-111 (1993) and oxazine-1 in absolute ethanol (Worth, et al., Integrating Sphere Setup for the Traceable Measurement of Absolute Photoluminescence Quantum Yields in the Near Infrared, Analytical Chemistry, 84, 1345-1352 (2012). Fluoromodules were formed by combining a quantity of fluorogen (SKC602 or SKC728) at least 20-fold above the fluoromodule dissociation constant with a molar excess of purified FAP (dL9.2 (SEQ. ID. NO. 2) or dL9.5 (SEQ. ID. NO. 3)). The solutions were incubated at 4° C. with rocking for at least one hour prior to measurements in order to ensure complete complex formation. The optical path length for all sample measurements was 1.00 cm, and all solutions were at room temperature during measurement. Absorbance measurements were taken using a PerkinElmer Lambda 45 UV/VIS spectrometer, while fluorescence emission spectra were measured using a Quantamaster fluorometer equipped with dual excitation and emission monochromators (Photon Technology International). Fluorescence emission was integrated using Spekwin32 (Menges 2013, http://www.effemm2.de/spekwin/spekwin_copyright/de.html. Linear fits and quantum yield ratios were calculated in Microsoft Excel 2013.

[2] = Relative fluorescence quantum yield of fluoromodules, gradient method; type: physicochemical; conditions: relative to Cy5.18 in PBS pH 7.4 and oxazine-1 in ethanol; molar excess of FAP; room temperature
Method: as §1

[3] = tested on: HEK293 cells expressing dL9.5; assay: Confocal imaging of HEK293 cells expressing dL9.5 in various cellular contexts; type: cell-based; conditions: cytoplasmic dL9.5-eGFP, 200 nM SKC602, fluorogen not washed away
Source text: The expressed construct was imaged using an Andor Revolution XD spinning disk confocal (GFP 488:525/50, dL9.5 (SEQ. ID. NO. 3) 640:685/70 AND 640:794/160, 60×1.49 NA oil immersion objective) and the results are shown in FIG. 5. […] The fluorogen was not washed away prior to imaging.
Imaging conditions were similar to those described for obtaining FIG. 5.
CYTOPLASM. HEK293 cells were transfected with, and stably expressing the pCYdL9.5eGFP vector, were thawed from a cryostock and maintained in DMEM/10% FBS for four passages prior to fluorescence imaging procedures. Immediately prior to imaging, growth media was exchanged for HBSS (pH 7.4) supplemented with SKC602 (200 nM final concentration). The cells were allowed to recover at 37° C. with 5% CO2 for 20-30 minutes, and fluoromodule activity under in vivo conditions within the cytoplasm was imaged using an Andor Revolution XD spinning disk confocal microscope (60×1.49 NA oil immersion objective, excitation at 640 nm, emission in far-red: 685/70 filter, and NIR: 794/160 filter). The same cells were also imaged for eGFP activity (excitation at 488 nm, emission via 525/50 nm filter). […] In accordance with the fluoromodule emission spectrum shown in FIG. 2, this emission filter allows the microscope camera to detect a large portion of the fluoromodule emission, and consequently, the observed signal appears brighter. One must note that intensities cannot be directly compared between channels, due to considerations non-exclusively including: differences in excitation light intensities, exposure and capture times, the transmission profile of each emission filter, and the quantum efficiency of the iXON3 DU897 (back-illuminated) camera across the range of emitted wavelengths. An evenly distributed fluorescence signal is observed in these cells, with no bright foci that would indicate protein aggregation, and the fluoromodule signal intensity scales with that of eGFP.
PLASMA MEMBRANE. […]

[4] = Fluoromodule activity/stability with respect to pH; type: physicochemical; conditions: for Longer-term stability of fluorescence across pH: 24 hours
Method: […] 4. The averages of five replicates per pH increment are shown as filled circles; bars denote extreme values within each replicate set, and normalization is to the maximum value within all data points. […] Stability of this degree allows the fluoromodule probe to be useful in an extremely wide range of cellular contexts.
A set of titrating buffers occupying pH values from 2.0 to 10.0 in 0.5 unit increments was prepared at room temperature in accordance to a published recipe (Carmody, An Easily Prepared Wide Range Buffer Series, Journal of Chemical Education, Vol. 38, No. 11, pp. 559-560 (1961)) adjusted to accommodate sodium chloride at a concentration of 300 mM. Fluoromodules consisting of dL9.5 bound to SKC602 were prepared by addition of 16.7 μL HPLC-purified SKC602 (300 μM stock in EtOH/5% acetic acid) to 1.30 mL Buffer (10.0 mM Tris, pH 8.0 at RT, supplemented with 300 mM NaCl). Purified dL9.5 was added (1.5 mL, approximately 50 μM stock) and incubated at 4° C. for 90 minutes. […] Fluorescence was then measured using a TECAN Infinite M1000 plate reader with 695/10 nm excitation and 735/10 nm emission windows at a gain of 111. Data was processed in Microsoft Excel 2010: The mean fluorescence intensity value for each pH increment was calculated, and all mean values were divided by the maximum mean intensity in order to normalize fluorescence intensities measured across the entire pH range to a value of 1.0. Extreme values within each set of five replicates calculated to a percentage of the mean for each pH increment in order to indicate the degree of variation across replicate reads.

## CN(C)c1ccc(/C=C/C=C/C(=C2C=CC(=[N+](C)C)C=C2)c2ccc(N(C)C)cc2)cc1 [SKC638]
dL9 (SEQ. ID NO: 1)
  Emission peak contributed by extended chromophore: ~823 nm

B1: dL9.5:SKC602: fluoromodule: FAP dL9.5 (SEQ. ID. NO. 3) non-covalently complexed with fluorogen SKC602 (protein)
chain: SYELTQPPSVSVSPGQTARITCSGDALPKQYTYWYQQKAGQAPVLVIYKDTERPSGIPERFSGTSSGTTATLTISGVQAEDEADYYCQSADSSGSHVFFGGGTKVTVLSGGGGPGGGSGGGSGGGSGGGSYELTQPPSVSVSPGQTARITCSGDALPKQYTYWYQQKAGQAPVLVIYKDTERPSGIPERFSGTSSGTTATLTISGVQAEDEADYYCQSADSSGSHVFFGGGTKVTVLS
modifications: non-covalent fluorogen SKC602; Fluorogen Activating Peptide (FAP) sequence
[1]
  Brightness (ε · Φ · 1 × 10^−3): 20
  Em (nm), emission maximum: 731 nm
  Ex (nm), excitation maximum: 702 nm
  ε: 120000 M⁻¹ cm⁻¹
[2]
  Φ (fluorescence quantum yield): 0.17
[3]
  NIR fluorescence in cytoplasm of HEK293 cells: produces NIR fluorescence
[4]; Carmody buffer with 300 mM NaCl, pH 2-10, after three hours
  Fluorescence stability across pH range: exceptional stability across a broad pH range
[4]; pH 2.0-10.0, reads every minute for one hour
  Change of mean fluorescence in each pH solution over one hour: ≤ 3%

B2: dL9.5:SKC728: fluoromodule: FAP dL9.5 (SEQ. ID. NO. 3) non-covalently complexed with fluorogen SKC728 (protein)
chain: SYELTQPPSVSVSPGQTARITCSGDALPKQYTYWYQQKAGQAPVLVIYKDTERPSGIPERFSGTSSGTTATLTISGVQAEDEADYYCQSADSSGSHVFFGGGTKVTVLSGGGGPGGGSGGGSGGGSGGGSYELTQPPSVSVSPGQTARITCSGDALPKQYTYWYQQKAGQAPVLVIYKDTERPSGIPERFSGTSSGTTATLTISGVQAEDEADYYCQSADSSGSHVFFGGGTKVTVLS
modifications: non-covalent fluorogen SKC728; Fluorogen Activating Peptide (FAP) sequence
[1]
  Brightness (ε · Φ · 1 × 10^−3): 23
  Em (nm), emission maximum: 733 nm
  Ex (nm), excitation maximum: 703 nm
  ε: 98000 M⁻¹ cm⁻¹
[2]
  Φ (fluorescence quantum yield): 0.23

B3: dL9.2:SKC602: fluoromodule: FAP dL9.2 (SEQ. ID. NO. 2) non-covalently complexed with fluorogen SKC602 (protein)
chain: SYELTQPPSVSVSPGQTARITCSGDALPKQYTYWYQQKAGQAPVLVIYKDTERPSGIPERFSGTSSGTTATLTISGVQAEDEADYYCQSADSSGSYVFFGGGTKVTVLSGGGGPGGGSGGGSGGGSGGGSYELTQPPSVSVSPGQTARITCSGDALPKQYTYWYQQKAGQAPVLVIYKDTERPSGIPERFSGTSSGTTVTLTISGVQAEDEADYYCQSADSSGSYVFFGGGTKVTVLS
modifications: non-covalent fluorogen SKC602; Fluorogen Activating Peptide (FAP) sequence
[1]
  Brightness (ε · Φ · 1 × 10^−3): 20
  Em (nm), emission maximum: 731 nm
  Ex (nm), excitation maximum: 702 nm
  ε: 120000 M⁻¹ cm⁻¹
[2]
  Φ (fluorescence quantum yield): 0.17
[4]
  Longer-term stability of fluorescence across pH: remained stable over 24 hours

B4: dL9.2:SKC728: fluoromodule: FAP dL9.2 (SEQ. ID. NO. 2) non-covalently complexed with fluorogen SKC728 (protein)
chain: SYELTQPPSVSVSPGQTARITCSGDALPKQYTYWYQQKAGQAPVLVIYKDTERPSGIPERFSGTSSGTTATLTISGVQAEDEADYYCQSADSSGSYVFFGGGTKVTVLSGGGGPGGGSGGGSGGGSGGGSYELTQPPSVSVSPGQTARITCSGDALPKQYTYWYQQKAGQAPVLVIYKDTERPSGIPERFSGTSSGTTVTLTISGVQAEDEADYYCQSADSSGSYVFFGGGTKVTVLS
modifications: non-covalent fluorogen SKC728; Fluorogen Activating Peptide (FAP) sequence
[1]
  Brightness (ε · Φ · 1 × 10^−3): 19
  Em (nm), emission maximum: 733 nm
  Ex (nm), excitation maximum: 703 nm
  ε: 90000 M⁻¹ cm⁻¹
[2]
  Φ (fluorescence quantum yield): 0.21
[4]
  Longer-term stability of fluorescence across pH: remained stable over 24 hours
